What was measured:
[1] = tested on: myc-tagged CHO cell-expressed CTHRC1
[2] = tested on: His-tagged CTHRC1 expressed in Chinese hamster ovary cells (CHO)

Substance | cleavage of CTHRC1 (immunoblot after digestion) [1] | also measured
MMP-7 | MMP-7 and thrombin do not cleave CTHRC1 | 
highly purified bacterial collagenase (VII, Sigma) |  | cleavage of CTHRC1 (immunoblot after digestion) [2]: highly purified bacterial collagenase (Sigma) (FIG. 30), as well as MMP-1 (FIG. 31) cleave CTHRC1 near the N terminus
matrix metalloprotease 1 (MMP-1) |  | cleavage of CTHRC1 (immunoblot after 15 and 60 minutes digest) [1]: MMP-1 (FIG. 31) cleave CTHRC1 near the N terminus
thrombin | MMP-7 and thrombin do not cleave CTHRC1 | 

Reference: patent US20050147602
